The test addresses NDR1 MBD and kinase domain (NDR1^MBD-KD, residues 12-418), wild type (human, UniProt Q15208 12-418). Description: HDX-MS.

Chain of NDR1 MBD and kinase domain (NDR1^MBD-KD, residues 12-418), wild type (Q15208 12-418): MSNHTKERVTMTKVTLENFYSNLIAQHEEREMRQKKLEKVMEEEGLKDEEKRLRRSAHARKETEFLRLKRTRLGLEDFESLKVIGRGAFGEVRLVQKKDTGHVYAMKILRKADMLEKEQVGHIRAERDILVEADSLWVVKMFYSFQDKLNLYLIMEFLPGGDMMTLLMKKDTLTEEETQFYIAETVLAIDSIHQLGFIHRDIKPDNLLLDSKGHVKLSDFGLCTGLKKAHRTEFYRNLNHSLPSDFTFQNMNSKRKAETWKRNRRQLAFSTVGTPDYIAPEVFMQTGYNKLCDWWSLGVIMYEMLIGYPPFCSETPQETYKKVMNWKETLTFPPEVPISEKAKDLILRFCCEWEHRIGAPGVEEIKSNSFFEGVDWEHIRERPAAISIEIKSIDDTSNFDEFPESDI

B1: MOB1A (amino acids 2-216), recombinant (natural protein, human, UniProt Q9H8S9 2-216, looked up)
chain: SFLFSSRSSKTFKPKKNIPEGSHQYELLKHAEATLGSGNLRQAVMLPEGEDLNEWIAVNTVDFFNQINMLYGTITEFCTEASCPVMSAGPRYEYHWADGTNIKKPIKCSAPKYIDYLMTWVQDQLDDETLFPSKIGVPFPKNFMSVAKTILKRLFRVYAHIYHQHFDSVMQLQEEAHLNTSFKHFIFFVQEFNLIDRRELAPLQELIEKLGSKDR
Take B1: the binding result is recorded as “binds”.

These data come from paper PMC6087429 (Structure(London, England:1993), 2018).
